The values that follow are results of earlier work, collected in publication PMC7948954.

Some targets named below: Pf1 (UniProt Q96QT6); Mad1 (UniProt Q05195); SAP30 (UniProt O88574).
Series [1] concerns the target Col10 (Arabidopsis thaliana) (UniProt Q9LUA9).
Series [2] addresses DREB2a (Arabidopsis thaliana) (UniProt O82132).
The target of series [3] is ANAC013 (Arabidopsis thaliana) (UniProt F4IED2).
The target in series [4] is ANAC087 (Arabidopsis thaliana) (UniProt Q9FK44).
Series [5] concerns the target STO (Arabidopsis thaliana) (UniProt Q96288).
Sequence of UniProt Q96288 (Q96288 whole entry): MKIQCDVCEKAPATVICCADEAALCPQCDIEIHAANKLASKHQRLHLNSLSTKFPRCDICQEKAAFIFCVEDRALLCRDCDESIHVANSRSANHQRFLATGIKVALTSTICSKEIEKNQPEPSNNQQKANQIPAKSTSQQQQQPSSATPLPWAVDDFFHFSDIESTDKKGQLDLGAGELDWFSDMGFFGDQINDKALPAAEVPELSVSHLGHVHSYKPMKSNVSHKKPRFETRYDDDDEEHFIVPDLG

Sequence of UniProt O88574 (O88574 130-220): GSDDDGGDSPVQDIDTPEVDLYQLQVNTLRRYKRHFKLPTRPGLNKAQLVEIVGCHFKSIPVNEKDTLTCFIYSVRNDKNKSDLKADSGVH
Sequence of UniProt Q9FK44 (Q9FK44 whole entry): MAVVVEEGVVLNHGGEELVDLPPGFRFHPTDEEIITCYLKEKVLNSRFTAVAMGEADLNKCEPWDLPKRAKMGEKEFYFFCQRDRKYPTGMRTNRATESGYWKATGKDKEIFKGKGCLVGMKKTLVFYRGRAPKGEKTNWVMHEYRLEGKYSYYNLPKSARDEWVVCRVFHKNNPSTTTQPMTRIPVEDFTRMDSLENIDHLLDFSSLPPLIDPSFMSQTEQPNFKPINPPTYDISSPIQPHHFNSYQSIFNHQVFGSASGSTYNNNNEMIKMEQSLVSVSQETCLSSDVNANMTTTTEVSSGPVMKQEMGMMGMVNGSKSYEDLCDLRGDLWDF
Sequence of UniProt Q05195 (Q05195 5-24): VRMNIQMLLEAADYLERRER
Sequence of UniProt O82132 (O82132 whole entry): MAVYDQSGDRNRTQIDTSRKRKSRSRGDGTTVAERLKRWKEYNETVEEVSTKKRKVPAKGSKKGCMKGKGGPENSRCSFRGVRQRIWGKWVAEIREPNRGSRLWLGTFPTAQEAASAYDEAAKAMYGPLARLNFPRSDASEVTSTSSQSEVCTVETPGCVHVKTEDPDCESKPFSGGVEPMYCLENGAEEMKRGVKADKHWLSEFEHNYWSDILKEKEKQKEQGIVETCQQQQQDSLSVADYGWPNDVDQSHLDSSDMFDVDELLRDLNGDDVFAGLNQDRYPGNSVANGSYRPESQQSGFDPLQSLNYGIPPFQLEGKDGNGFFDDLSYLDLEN
Sequence of UniProt F4IED2 (F4IED2 whole entry): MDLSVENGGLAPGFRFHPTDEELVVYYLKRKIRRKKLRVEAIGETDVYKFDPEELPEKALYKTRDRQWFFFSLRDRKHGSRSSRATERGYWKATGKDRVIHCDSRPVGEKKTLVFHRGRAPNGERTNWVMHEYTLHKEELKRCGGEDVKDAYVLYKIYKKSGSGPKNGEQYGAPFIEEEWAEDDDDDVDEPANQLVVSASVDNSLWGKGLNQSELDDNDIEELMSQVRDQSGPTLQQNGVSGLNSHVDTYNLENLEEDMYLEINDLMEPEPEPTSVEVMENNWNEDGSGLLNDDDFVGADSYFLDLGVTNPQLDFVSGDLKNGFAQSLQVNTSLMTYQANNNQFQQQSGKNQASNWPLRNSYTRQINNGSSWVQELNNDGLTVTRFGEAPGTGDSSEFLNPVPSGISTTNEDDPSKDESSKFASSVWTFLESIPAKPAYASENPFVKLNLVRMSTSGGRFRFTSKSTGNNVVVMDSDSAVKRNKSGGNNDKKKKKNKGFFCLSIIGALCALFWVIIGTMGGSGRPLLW
Sequence of UniProt Q9LUA9 (Q9LUA9 whole entry): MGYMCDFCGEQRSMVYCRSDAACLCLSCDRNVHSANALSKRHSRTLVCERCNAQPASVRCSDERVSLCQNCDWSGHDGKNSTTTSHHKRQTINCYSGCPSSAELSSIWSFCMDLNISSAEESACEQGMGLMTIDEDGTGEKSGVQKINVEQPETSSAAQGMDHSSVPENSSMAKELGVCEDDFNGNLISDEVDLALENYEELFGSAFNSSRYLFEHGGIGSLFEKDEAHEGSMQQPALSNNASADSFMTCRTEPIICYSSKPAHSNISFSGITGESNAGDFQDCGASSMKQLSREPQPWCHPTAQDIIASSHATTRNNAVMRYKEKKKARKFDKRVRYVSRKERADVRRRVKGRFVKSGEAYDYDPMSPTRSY
Sequence of UniProt Q96QT6 (Q96QT6 202-241): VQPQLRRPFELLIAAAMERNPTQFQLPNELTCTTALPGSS

Regarding RCD1 RST (from UniProt Q8RY59), the Kd was 418 nM in series [1]; 16 nM in series [2]; 9 nM in series [3]; 1800 nM in series [4]; 90 nM in series [5].

On to Sin3 PAH2 (from UniProt Q60520), for which the results for the Kd in the series with Pf1 and in the series with Mad1 were 2000 nM and 50 nM, respectively.

Turning to Sin3a PAH3 (from UniProt Q60520), in the series with SAP30, the Kd is 9 nM.

Usually Kd stands for the equilibrium constant for the complex coming apart.
